From paper doi:10.1101/2025.08.17.670746, “Post-transcriptional regulation of meiotic transcripts by the RNA binding protein CDM1 is associated with cytoplasmic condensate assemblies” (bioRxiv, 2025)

Biological target: the molecule itself
Test: pull-down; equimolar His6-MBP-CDM1-GFP and TEV-cleaved CDM1-GFP mixed in 20 mM HEPES pH 7.4, 150 mM KCl, 1 mM DTT, room temperature, 2 h; precipitated with anti-His antibody and Protein G beads; blot with anti-GFP

B1: CALLOSE … MICROSPORES1 (CDM1) fused to G3GFP, made in E. coli (His6-MBP-CDM1-GFP and its TEV-cleaved form CDM1-GFP) (natural protein, Arabidopsis thaliana, UniProt Q9C9F5 1-308, looked up)
chain: MENKIAPFSYSGSSAGNSSSGGVVSSSLYSDQLYKSTRNIMQQRQDMVNREALCYTRLHEASLEAEALRLENTELRSMNLRLKNELNSLIRSSIQNRFDHRSPLRMLSNLSIGGNDADEVENQNRTVNRDDVNDKSPTSVMENEDLNRSSLPKSISVRSNGYSKASQGGGGAAAQSGKPRGTVTKPGTCGQVSTTQKVYVRGGGKKEDQEEEIEVEVYNQGMTKTELCNKWQETGTCPYGDHCQFAHGIKELRPVIRHPRYKTEVCRMVLAGDNCPYGHRCHFRHSLSEQEKLVAAGFKPKSSLKLIT
notes: CDM1 (CALLOSE … MICROSPORE1, C3H15), Arabidopsis thaliana, At1G68200; Self-association test with two differently tagged copies: the bait copy kept His6-MBP (His6-MBP-CDM1-GFP); Both copies carry the C-terminal G3GFP, by which they were detected; also called C3H15; His-MBP-CDM1-G3GFP; source: E. coli BL21-Rosetta, purified (His Mag Sepharose Ni beads, dialysed); not shown: His6, N-terminal, kept; …
- binding result: binds
